Source: patent publication US20190300590A1 (PROTAGONIST THERAPEUTICS, published 2019)
Where two headings read alike, the source gives them in different places. *1 amine or outer side, *2 acyl side, *3 side chain or, on linkers, in order; H or OH if unused. Bridges are numbered along the chain shown (N, C = ends). Primed or numbered codes have the meaning given here. [ ]: non-standard residue; d: D form. Phe(4-OMe)(3) = O-methyl-L-tyrosine (4-methoxy-L-phenylalanine), COc1ccc(C[C@H](N[*:1])C(=O)[*:2])cc1; Phe(4-Oallyl) = 4-allyloxy-phenylalanine (O-allyl-tyrosine), C=CCOc1ccc(C[C@H](N[*:1])C(=O)[*:2])cc1; Phe(4-OMe) = 4-methoxy-L-phenylalanine (O-methyl-L-tyrosine), COc1ccc(C[C@H](N[*:1])C(=O)[*:2])cc1; Phe(Bzl) = read as Phe(4-OBzl), O-benzyl-L-tyrosine, O=C([C@H](Cc1ccc(OCc2ccccc2)cc1)N[*:1])[*:2]; Phe(4-OMe)″ = 4-methoxyphenylalanine, COc1ccc(C[C@H](N[*:1])C(=O)[*:2])cc1; Phe(4-guanidino) = N=C(N)Nc1ccc(C[C@H](N)C(=O)O)cc1; Phe(4-CONH2) = NC(=O)c1ccc(C[C@H](N)C(=O)O)cc1; Phe(4-COOH) = N[C@@H](Cc1ccc(C(=O)O)cc1)C(=O)O; Tyr(Ph) = N[C@@H](Cc1ccc(Oc2ccccc2)cc1)C(=O)O; Phe(4-Me) = Cc1ccc(C[C@H](N)C(=O)O)cc1; 2Nal = N[C@@H](Cc1ccc2ccccc2c1)C(=O)O; AEF = NCCOc1ccc(C[C@H](N)C(=O)O)cc1; Cha = N[C@@H](CC1CCCCC1)C(=O)O; αMeK = C[C@](N)(CCCCN)C(=O)O; Abu = CC[C@H](N)C(=O)O

T1: IL23R_huFC (human, UniProt Q5VWK5 24-353)
T1 sequence (looked up): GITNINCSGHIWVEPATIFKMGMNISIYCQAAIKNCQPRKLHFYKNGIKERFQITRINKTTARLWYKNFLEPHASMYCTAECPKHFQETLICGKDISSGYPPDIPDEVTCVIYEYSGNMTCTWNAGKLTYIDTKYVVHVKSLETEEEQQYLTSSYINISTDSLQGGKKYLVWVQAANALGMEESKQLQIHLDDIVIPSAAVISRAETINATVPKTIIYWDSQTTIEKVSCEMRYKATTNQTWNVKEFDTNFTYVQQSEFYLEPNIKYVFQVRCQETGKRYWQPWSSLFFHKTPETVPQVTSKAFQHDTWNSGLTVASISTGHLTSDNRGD

T2: IL-23R on human cells (IL-23R-expressing DB cells; human NK cells) (human, UniProt Q5VWK5 24-629)
T2 sequence (looked up): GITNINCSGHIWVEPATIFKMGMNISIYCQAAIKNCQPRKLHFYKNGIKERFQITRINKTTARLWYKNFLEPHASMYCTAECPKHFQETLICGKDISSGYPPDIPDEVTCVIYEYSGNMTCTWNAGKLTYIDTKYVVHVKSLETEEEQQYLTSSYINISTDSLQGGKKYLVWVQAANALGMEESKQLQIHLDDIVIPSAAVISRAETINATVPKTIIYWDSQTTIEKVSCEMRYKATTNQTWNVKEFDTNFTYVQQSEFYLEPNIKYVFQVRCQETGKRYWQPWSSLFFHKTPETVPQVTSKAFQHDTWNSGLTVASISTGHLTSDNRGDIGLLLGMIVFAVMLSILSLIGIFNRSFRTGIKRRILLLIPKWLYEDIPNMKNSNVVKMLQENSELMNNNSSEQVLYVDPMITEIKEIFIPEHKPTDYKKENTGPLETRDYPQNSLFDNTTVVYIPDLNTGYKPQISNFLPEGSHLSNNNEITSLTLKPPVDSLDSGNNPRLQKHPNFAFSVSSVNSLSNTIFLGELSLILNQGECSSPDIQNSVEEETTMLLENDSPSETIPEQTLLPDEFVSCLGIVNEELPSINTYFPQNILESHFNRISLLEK


Legend:
[1] = biological target: T1, IL23R_huFC; assay: human ELISA vs IL-23
[2] = biological target: Rat IL-23R_huFC (rat); assay: rat ELISA vs IL-23
[3] = biological target: T2, IL-23R on human cells …; assay: cell-based or functional assay
[4] = biological target: T1, IL23R_huFC; assay: human ELISA vs IL-23; remark: listed apart in the source
[5] = biological target: Rat IL-23R_huFC (rat); assay: rat ELISA vs IL-23; remark: listed apart in the source
[6] = biological target: T1, IL23R_huFC; assay: human ELISA vs IL-23; remark: listed apart in the source

IC50 [1] | IC50 [2] | Binder | also measured
100 to 1000 nM |  | Ac-[Abu]STWQC[AEF][2Nal][αMeK]KNGGE-NH2 (thioether 1-6) [Ac-Cyclo-[[Abu]-STWQC]-[Phe[4-(2-aminoethoxy)]]-[2-Nal]-[α-MeLys]-KNGGE-NH2] | 
 | 25 to 100 nM | XQTWQCFXXENG (as bracketed in name; thioether cyclo) [Ac-Cyclo-[[Abu]-QTWQC]-[Phe(4-OMe)]-[2-Nal]-[α-MeOrn]-ENG-NH2] | 
 | 25 to 100 nM | Ac-[Abu]QTWQC[Phe(4-OMe)][2Nal][Cha]K(Ac)NG-NH2 (thioether 1-6) [Ac-Cyclo-[[Abu]-QTWQC]-[Phe(4-OMe)]-[2-Nal]-[Cha]-[Lys(Ac)]-NG-NH2] | pStat3 HTRF IC50 [3]: < 10 nM; IC50 [4]: 25 to 100 nM
100 to 1000 nM |  | XQTWQCFXXKNG (as bracketed in name; thioether cyclo) [Ac-Cyclo-[[Abu]-QTWQC]-[Phe(4-OMe)]-[2-Nal]-[Orn]-[Lys(Ac)]-NG-NH2] | 
 | 25 to 100 nM | Ac-[Abu]QTWQC[Phe(4-OMe)]W[αMeK]ENG-NH2 (thioether 1-6) [Ac-Cyclo-[[Abu]-QTWQC]-[Phe(4-OMe)]-W-[α-MeLys]-ENG-NH2] | 
100 to 1000 nM |  | Ac-[Abu]QTWQC[Phe(4-OMe)(3)][Phe(Bzl)][αMeK]ENG-NH2 (thioether 1-6) [Ac-Cyclo-[[Abu]-QTWQC]-[Phe(4-OMe)]-[Phe(Bzl)]-[α-MeLys]-ENG-NH2] | 
100 to 1000 nM |  | Ac-[Abu]QTWQC[Phe(4-OMe)″][Phe(4-Me)][αMeK]ENG-NH2 (thioether 1-6) [Ac-Cyclo-[[Abu]-QTWQC]-[Phe(4-OMe)]-Phe(4-Me)-[α-MeLys]-ENG-NH2] | 
100 to 1000 nM |  | Ac-[Abu]QTWQC[AEF][Phe(4-CONH2)][αMeK]K(Ac)NG-NH2 (thioether 1-6) [Ac-Cyclo-[[Abu]-QTWQC]-[Phe[4-(2-aminoethoxy)]]-[Phe(4-CONH2)]-[α-MeLys]-[Lys(Ac)]-NG-NH2] | 
100 to 1000 nM |  | Ac-[Abu]QTWQC[AEF][Phe(4-COOH)][αMeK]K(Ac)NG-NH2 (thioether 1-6) [Ac-Cyclo-[[Abu]-QTWQC]-[Phe[4-(2-aminoethoxy)]]-[Phe(4-CO2H)]-[α-MeLys]-[Lys(Ac)]-NG-NH2] | 
100 to 1000 nM |  | Ac-[Abu]QTWQC[Phe(4-OMe)(3)][Phe(4-guanidino)][αMeK]ENG-NH2 (thioether 1-6) [Ac-Cyclo-[[Abu]-QTWQC]-[Phe(4-OMe)]-[Phe(4-guanidino)]-[α-MeLys]-ENG-NH2] | 
100 to 1000 nM |  | Ac-[Abu]QTWQC[Phe(4-OMe)(3)][Phe(4-Oallyl)][αMeK]ENG-NH2 (thioether 1-6) [Ac-Cyclo-[[Abu]-QTWQC]-[Phe(4-OMe)]-[Phe(4-Oallyl)]-[α-MeLys]-ENG-NH2] | 
 | 25 to 100 nM | Ac-[Abu]QTWQC[Tyr(Ph)]W[αMeK]ENG-NH2 (thioether 1-6) [Ac-Cyclo-[[Abu]-QTWQC]-[Phe(4-phenoxy)]-W-[α-MeLys]-ENG-NH2] | 
 |  | Ac-[dR][Abu]QTWQC[AEF][2Nal][αMeK]ENN-NH2 (thioether 2-7) [Ac-[(D)Arg]-Cyclo-[[Abu]-QTWQC]-[Phe[4-(2-aminoethoxy)]]-[2-Nal]-[α-MeLys]-ENN-NH2] | IC50 [5]: < 10 nM; IC50 [6]: < 10 nM; pStat3 HTRF IC50 [3]: < 10 nM
 |  | Ac-[dQ][Abu]QTWQC[AEF][2Nal][αMeK]ENN-NH2 (thioether 2-7) [Ac-[(D)Gln]-Cyclo-[[Abu]-QTWQC]-[Phe[4-(2-aminoethoxy)]]-[2-Nal]-[α-MeLys]-ENN-NH2] | IC50 [5]: < 10 nM; IC50 [6]: < 10 nM; pStat3 HTRF IC50 [3]: < 10 nM
 | 25 to 100 nM | Ac-[Abu]QTWQC[2Nal][2Nal][αMeK]K(Ac)NG-NH2 (thioether 1-6) [Ac-Cyclo-[[Abu]-QTWQC]-[2-Nal]-[2-Nal]-[α-MeLys]-[Lys(Ac)]-NG-NH2] | IC50 [4]: 25 to 100 nM
 | 25 to 100 nM | Ac-[Abu]QTWQC[Phe(4-guanidino)]W[αMeK]ENG-NH2 (thioether 1-6) [Ac-Cyclo-[[Abu]-QTWQC]-[Phe(4-guanidino)]-W-[α-MeLys]-ENG-NH2] | 
 | 25 to 100 nM | Ac-[Abu]QTWQC[Phe(4-CONH2)][2Nal][αMeK]K(Ac)NG-NH2 (thioether 1-6) [Ac-Cyclo-[[Abu]-QTWQC]-[Phe(4-CONH2)]-[2-Nal][α-MeLys]-[Lys(Ac)]NG-NH2] | 
